Source: the RNAGym collection of RNA variant scans (doi:10.1073/pnas.2313332121)

B1: TPR t1 (parent)
chain: GACCAAUCUGCCCUCAGAGCUCGAGAACAUCUUCGGAUGCAGAGGAGGCAGGCUUCGGUGGCGCGAUAGCGCCAACGUCCUCAACCUCCAAUGCAUCCCACCACAUGAUGAUGCCUGAAGAGCCUUGGUUUUUUG

Variants of: B1
Assay: polymerase ribozyme fitness, log enrichment relative to wild type (log ratio); higher = more active; in vitro selection for triplet polymerase activity
Procedure, shortened: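 Fitness compares each genotype's enrichment to that of the wild type on a logarithmic scale, averaging replicates with inverse-variance weights. The logarithm is base 2. Enrichment came from Illumina sequencing of input and output libraries after one triplicate round of in vitro selection, which included frozen incubation at −7 °C, of PCR-built, transcribed mutant libraries of each subunit of a heterodimeric triplet polymerase ribozyme. Only genotypes with ≥10 input reads and ≥1 read per output were kept.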

First: GACCAAUCUGCCCUCAGAGCUCGAGAACAUCUUCGGAUGCAGAAGAGGCAGGCUUCGGUGGCGCGAUAGCGCCAACGUCCUAAACCUCCAAUGCAUCCCACCACAUGAUGAUGCCUGAAGAGCCUUGGUUUUUUG
Second: GACCAAUCUGCCCUCAGAGCUCGAGAACAUCUUCGGAUGCAGAAGAUGCAGGCUUCGGUGGCGCGAUAGCGCCAACGUCCUCAACCUCCAAUGAAUCCCACCACAUGAUGAUGCCUGAAGAGCCUUGGUUUUUUG
The “polymerase ribozyme fitness (log ratio)” value of the first is higher: -1.69 for the first, -2.96 for the second.

First: GACCAAUCUGCCCUCAGAGCUCGAGAACAUCUUCGGAUGCAGAACAGGCAGGCUUCGGUGGCGCGAUAGCGCCAACGUCCUCAACCUCCAAUGCAUCCCACCACAUGAUGAUGCCUGAAGAGCCUUGGUUUUUUG
Second: GACCAAUCUGCCCUCAGAGCUCGAGAACAUCUUCGGAUGCAGAAGAGGCAGGCUUCCGUGACGCGAUAGCGCCAACGUCCUCAACCUCCAAUGCAUCCCACCACAUGAUGACGCCUGAAAAGCCUUAGUUUUUUG
The “polymerase ribozyme fitness (log ratio)” value of the first is lower: -3.88 for the first, -1.81 for the second.

First: GACCAAUCUGCCCUCAGAGCUCGAGAACAUCUUCGGAUGCAGAAGAGGCAGGCUUCGGUGGCGCGAUAGCGCCAACAUCCUCAACCUCCAAUGCAUCCCACCACACGAUGAUGCCUAAAGAGCCUUGGUUUUUUG
Second: GACCAAUCUGCCCUCAGAGCUCGAGAACAUCUUCGGAUGCAGAAGAGGCAGGCUUCGGUGGCGCGAUAGCGCCAACGUCCUCAACAUCUAAUGCAUCCCACCACAUGAUGAUGCGUGAAGAGACUUGGUUUUUUG
The “polymerase ribozyme fitness (log ratio)” value of the first is lower: -3.03 for the first, -2.79 for the second.

Compared with GACCAAUCUGCCCUCAGAGCUCGAGAACAUCUUCGGAUGCAGAAGAGGCAGGCUUCGGUGGCGCGAUAGCGCCAACGUCCUCAACCUCCAAUGCAUCCCACCACAUGAUGAUGCCUGAAGCGCCGUGGUUUUUUG, GACCAAUCUGCCCUCAGAGCUCGAGAACAUCUUCGGAUGCAGAAGAGGCAGGCUUCGGUGGCGCGAUAGCGCCAACGUCCUCAACCUCCAAUGCAUCCCACCACAUGAUGAUACCUGAAGAGCCUUGGUUUUUUG is lower in “polymerase ribozyme fitness (log ratio)” value: 0.065 for the first, -2.35 for the second.

Going from GACCAAUCUGCCCUCAGAGCUCGAGAACAUCUUCGGAUGCAGAAGAGGCAGCCUUCGAUGGCGCGAUAGCGCCAACGUCCUCAACCUCCAAUGCAUCCCACCACAUGAUGAUGCCUGAAAAGCCUUGGUUUUUUG to GACCAAUCUGCCCUCAGAGCUCGAGAACAUCUUCGGAUGCAGAAGAGGCAGGCUUCGGUAGCGCGAUAGCGCCAACGUCCUCAACCUCCAAUGCAUCCCACCACAUGAUGAUGCCUGAAGAGCCUUGGUUUUUUG, the “polymerase ribozyme fitness (log ratio)” value rises from -1.3 to -0.624.

First: GACCAAUCUGCCCUCAGAGCUCGAGAACAUCUUCGGAUGCAGAAGAGGCAGGCUUCGGUGGCGCGAUAGCGCCAACGUCCUCAACCUCCAAUGCAUCCCAACACAUGAUGAUGCCUGAAGAGCCUUGGUUUUUUG
Second: GACCAAUCUGCCCUCAGAGCUCGAGAACAUCUUCGGAUGCAGAAGAGGCAGGCUUCGGUGGCGCGAUAGCGCCAACGUCCUCAACCUCCAAUGCAUCCCAUCACAUGAUGAUGCCUGAAGAGCCUUGGUUUUUUG
The “polymerase ribozyme fitness (log ratio)” value of the first is lower: -2.48 for the first, -1.1 for the second.

Going from GACCAAUCUGCCCUCAGAGCUCGAGAACAUCUUCGGAUGCAGAAGAGGCAGGCUUCGGUGGCGCGAUAGCGCCAACGUCCUCAACCUCCAAUUCAUCCCACCACAUGAUGAUGCCUGAAGAGCGUUGGUUUUUUG to GACCAAUCUGCCCUCAGAGCUCGAGAACAUCUUCGGAUGCAGAAGAGGCAGGCUUCGGUGGCGCGAUAGCGGCAACGUACUCUACCUCCAAUGCAUCCCACCACAUGAUGAGGCCUGAAGAACCUUGGUUUCUUG, the “polymerase ribozyme fitness (log ratio)” value falls from 0.0379 to -6.81.

Going from GACCAAUCUGCCCUCAGAGCUCGAGAACAUCUUCGGAUGCAGAAGAGGUAGGCUUCGGUGGCGCGAUAGCGCCAAGGUCCUCAACCUGCAAUGCAUCCCACCACAUGAUGAUGCCUGAAGAGCCUUGGUUUUUUG to GACCAAUCUGCCCUCAGAGCUCGAGAACAUCUUCGGAUGCAGAAGAGGCAGGCUUCGGUGGCGCGAUAGCGCCAACGUCCUCAACCUCCAAUGCAUCCCACCACAUGAUUAUGCCUGAAGAGCCUUGGUUUUUUG, the “polymerase ribozyme fitness (log ratio)” value rises from -3.44 to -2.5.

Compared with GACCAAUCUGCCCUCAGAGCUCGAGAACAUCUUCGGAUGCAGAAGAGGCAGGCUUCGGUGGCGCGAUAGCGCCAACGUCCUCAACCUCUAAUGCAUCCCACCACAUGAUGAUGCCUGAAGAGUUUUGGUUUUUUG, GACCAAUCUGCCCUCAGAGCUCGAGAACAUCUUCGGAUGCAGAAGAGGCAGGCUCCGGUGGCGCGAUAGCGCCAACGUCCACAACCUCCAAUGCAUCCCACCACAUGAUGAUGCCUGAAGAGCCUUGGUUUUUUG is lower in “polymerase ribozyme fitness (log ratio)” value: 1.33 for the first, -2.83 for the second.

First: GACCAAUCUGCCCUCAGAGCUCGAGAACAUCUUCGGAUGCAGAAGAGGCAGUCUUCGGUGGCGCGAUAGCGCCAACGUCCUCAACCUCCAAUGCAUCCCACCACAUGAUGAUGCCUGAAGAGCCUUGGUUUUUUG
Second: GACCAAUCUGCCCUCAGAGCUCGAGAACAUCUUCGGAUGCAGAAGAGGCAGGCUUCGGUGGCGCGAUAGCGUCAACGUCCUCAACCUCCAAUUCAUUCCACCACAUGAUGAUGCCUGAAGAGCCUUGGUUAUUUG
The “polymerase ribozyme fitness (log ratio)” value of the first is higher: -2.04 for the first, -2.85 for the second.

With GACCAAUCUGCCCUCAGAGCUCGAGAACAUCUUCGGAUGCAGAAGAGGCAGGCUUCGGUGGCGCGAUAGCGACAACGUCCUCAACCUCCAAUGCAUCCCACCACAUGAUGAUGCCUAAAGAGCCUUGGUUUUUUG the “polymerase ribozyme fitness (log ratio)” value was -2.9.
